Reference: patent publication WO2013139956A1 (dated 2013)
Ends that are not written are not given here. * marks the point of attachment. Biotin = O=C1N[C@H]2[C@H](CS[C@H]2CCCCC(=O)*)N1

T1: human lactadherin (human, UniProt Q08431 24-387)
T1 sequence (looked up): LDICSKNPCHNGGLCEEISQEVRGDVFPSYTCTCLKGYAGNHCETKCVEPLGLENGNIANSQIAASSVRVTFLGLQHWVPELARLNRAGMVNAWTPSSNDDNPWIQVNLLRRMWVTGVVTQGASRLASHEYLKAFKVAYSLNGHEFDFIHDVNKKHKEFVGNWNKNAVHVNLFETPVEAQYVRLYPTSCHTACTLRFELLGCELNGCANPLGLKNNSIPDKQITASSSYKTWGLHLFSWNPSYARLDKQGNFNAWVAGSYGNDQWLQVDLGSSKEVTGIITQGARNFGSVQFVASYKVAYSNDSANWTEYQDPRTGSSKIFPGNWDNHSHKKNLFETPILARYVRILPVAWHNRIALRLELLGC

T2: peptide … (SEQ ID NO:51), N-terminally biotinylated (human)
T2 sequence (peptide, N-terminally biotinylated): EISQEVRGDVFPSY

T3: peptide … (SEQ ID NO:74), N-terminally biotinylated (human)
T3 sequence (peptide, N-terminally biotinylated): EISQEVAGDVFPSY

T4: peptide … (SEQ ID NO:75), N-terminally biotinylated (human)
T4 sequence (peptide, N-terminally biotinylated): EISQEVRADVFPSY

T5: peptide … (SEQ ID NO:77), N-terminally biotinylated (human)
T5 sequence (peptide, N-terminally biotinylated): EISQEVAADVFPSY

T6: peptide EISQEVRGAVFPSY (SEQ ID NO:76), N-terminally biotinylated (human)
T6 peptide: Biotin-EISQEVRGAVFPSY

T7: peptide EISQEVRAAVFPSY (SEQ ID NO:78), N-terminally biotinylated (human)
T7 peptide: Biotin-EISQEVRAAVFPSY

T8: peptide EISQEVAGAVFPSY (SEQ ID NO:79), N-terminally biotinylated (human)
T8 peptide: Biotin-EISQEVAGAVFPSY

T9: peptide EISQEVAAAVFPSY (SEQ ID NO:80), N-terminally biotinylated (human)
T9 peptide: Biotin-EISQEVAAAVFPSY

T10: peptide NGGLCEEISQEVRG (SEQ ID NO:81), N-terminally biotinylated (human)
T10 construct: Human lactadherin 14-mer with part of the RGD domain at the C-terminus
T10 peptide: Biotin-NGGLCEEISQEVRG

T11: peptide HNGGLCEEISQEVR (SEQ ID NO:82), N-terminally biotinylated (human)
T11 construct: Human lactadherin 14-mer with part of the RGD domain at the C-terminus
T11 peptide: Biotin-HNGGLCEEISQEVR

T12: peptide CHNGGLCEEISQEV (SEQ ID NO:83), N-terminally biotinylated (human, cysteine pairing not given here)
T12 peptide: Biotin-CHNGGLCEEISQEV

T13: peptide GDVFPSYTCTCLKG (SEQ ID NO:84), N-terminally biotinylated (human, cysteine pairing not given here)
T13 construct: Human lactadherin 14-mer with part of the RGD domain at the N-terminus
T13 peptide: Biotin-GDVFPSYTCTCLKG

T14: peptide DVFPSYTCTCLKGY (SEQ ID NO:85), N-terminally biotinylated (human, cysteine pairing not given here)
T14 construct: Human lactadherin 14-mer with part of the RGD domain at the N-terminus
T14 peptide: Biotin-DVFPSYTCTCLKGY

T15: peptide VFPSYTCTCLKGYA (SEQ ID NO:86), N-terminally biotinylated (human, cysteine pairing not given here)
T15 peptide: Biotin-VFPSYTCTCLKGYA


Experiments:
human lactadherin = biological target: T1, human lactadherin; experiment: cell-based or functional assay
[1] = biological target: T2, peptide … (SEQ ID NO:51), N-terminally biotinylated (human); experiment: ELISA, biotin-peptide on neutravidin plate, antibody 1 ug/ml
[2] = biological target: T3, peptide … (SEQ ID NO:74), N-terminally biotinylated (human); experiment: as above
[3] = biological target: T4, peptide … (SEQ ID NO:75), N-terminally biotinylated (human); experiment: as above
[4] = biological target: T5, peptide … (SEQ ID NO:77), N-terminally biotinylated (human); experiment: as above
[5] = biological target: T6, peptide EISQEVRGAVFPSY (SEQ ID NO:76), …; experiment: as above
[6] = biological target: T7, peptide EISQEVRAAVFPSY (SEQ ID NO:78), …; experiment: as above
[7] = biological target: T8, peptide EISQEVAGAVFPSY (SEQ ID NO:79), …; experiment: as above
[8] = biological target: T9, peptide EISQEVAAAVFPSY (SEQ ID NO:80), …; experiment: as above
[9] = biological target: T10, peptide NGGLCEEISQEVRG (SEQ ID NO:81), …; experiment: as above
[10] = biological target: T11, peptide HNGGLCEEISQEVR (SEQ ID NO:82), …; experiment: as above
[11] = biological target: T12, peptide CHNGGLCEEISQEV (SEQ ID NO:83), …; experiment: as above
[12] = biological target: T13, peptide GDVFPSYTCTCLKG (SEQ ID NO:84), …; experiment: as above
[13] = biological target: T14, peptide DVFPSYTCTCLKGY (SEQ ID NO:85), …; experiment: as above
[14] = biological target: T15, peptide VFPSYTCTCLKGYA (SEQ ID NO:86), …; experiment: as above

Row | inhibition of SKOV-3 cell adhesion to coated human lactadherin, antibody at 5 ug/mL (human lactadherin) | absorbance 450 nm minus 540 nm [1] | absorbance 450 nm minus 540 nm [2] | absorbance 450 nm minus 540 nm [3] | absorbance 450 nm minus 540 nm [4] | absorbance 450 nm minus 540 nm [5] | absorbance 450 nm minus 540 nm [6] | absorbance 450 nm minus 540 nm [7] | absorbance 450 nm minus 540 nm [8] | absorbance 450 nm minus 540 nm [9] | absorbance 450 nm minus 540 nm [10] | absorbance 450 nm minus 540 nm [11] | absorbance 450 nm minus 540 nm [12] | absorbance 450 nm minus 540 nm [13] | absorbance 450 nm minus 540 nm [14] | decrease of SKOV-3 cell migration towards lactadherin, antibody at 5 ug/mL (human lactadherin) | IC50 (nM), inhibition of cell adhesion to human lactadherin (human lactadherin) | Binder
1 | > 70% | 1.1 absorbance | 0.52 absorbance | 0.74 absorbance | 0.23 absorbance | 0.1 absorbance | 0.02 absorbance | 0.03 absorbance | 0.02 absorbance | 0.03 absorbance | 0.03 absorbance | 0.03 absorbance | 0.04 absorbance | 0.04 absorbance | 0.05 absorbance | – | – | anti-lactadherin antibody 215A9 (antibody, IgG1, V domains shown, also called 2154A9; hybridoma 215A9) VH: QVSLKESGPGILQSSQTLSLTCSFSGFSLSTSGMGVSWIRQPSGKGLEWLAHIYWNDDKRYNPSLKSRLTISKDTSRDQVFLKITSVDTADTATYFCARRPRFYRDYDEGIDFWGQGTTLTVSS VL: QAVVTQESALTTSPGETVTLTCRSSTGAVTTNNYANWVQEKPDHLFTGLIGGTNNRTPGVPARFSGSLIGDKAALTITGAQTEDEAIYFCALWYSNLWVFGGGTKLTVLG
2 | > 70% | 1.62 absorbance | 0.24 absorbance | 0.69 absorbance | 0.2 absorbance | 0.03 absorbance | 0.02 absorbance | 0.03 absorbance | 0.02 absorbance | 0.03 absorbance | 0.02 absorbance | 0.02 absorbance | 0.03 absorbance | 0.04 absorbance | 0.03 absorbance | > 80% | – | anti-lactadherin antibody 399A12 (antibody, V domains shown, Murine monoclonal, kappa light chain; Variable regions identical to those of 416H9; also called hybridoma 399A12; LMBP 9491CB) VH: QVTLKESGPGVLQSSQTLSLTCSFSGFSLSTSGLGVIWIRQPSGAGLEWLAQIYWDDNKRYNPSLKSRLTISKDTSRNQVFLKITPVDTADTATYYCARRTFYDYDEGFYAMDYWGQGTSVTVSS VL: DIQMTQTTSSLSASLGDRVTITCRASQDISNYLNWYQQKPDGTIKLLIYYASRLHSGVPSRFSGSGSGTDYSLTISNLEQEDIATYFCQQGNTLPLTFGAGTKLELKR
3 | > 70% | 1.76 absorbance | 0.25 absorbance | 0.7 absorbance | 0.19 absorbance | 0.02 absorbance | 0.02 absorbance | 0.05 absorbance | 0.02 absorbance | 0.02 absorbance | 0.03 absorbance | 0.03 absorbance | 0.03 absorbance | 0.03 absorbance | 0.03 absorbance | > 80% | – | anti-lactadherin antibody 416H9 (antibody, IgG1, V domains shown, also called hybridoma 416H9; LMBP 9492CB) VH: QVTLKESGPGVLQSSQTLSLTCSFSGFSLSTSGLGVIWIRQPSGAGLEWLAQIYWDDNKRYNPSLKSRLTISKDTSRNQVFLKITPVDTADTATYYCARRTFYDYDEGFYAMDYWGQGTSVTVSS VL: DIQMTQTTSSLSASLGDRVTITCRASQDISNYLNWYQQKPDGTIKLLIYYASRLHSGVPSRFSGSGSGTDYSLTISNLEQEDIATYFCQQGNTLPLTFGAGTKLELKR
4 | – | – | – | – | – | – | – | – | – | – | – | – | – | – | – | – | 7.36 nM | chimeric 311A7 antibody (antibody, V domains shown) VH: EFQLQQSGPELVKPGASVRISCKASGYSFTDYNMNWVKQSDGKTLEWIGVINPDYGTTNNNQRFRGKATLTLDLSSSTAYMQLNSLTSEDSAVYYCARGGDYGAGYALDYWGQGTSVTVSS VL: QIVLTQSPAIMSASPGEKVTITCSASSSVSYMYWFQQKPGTSPKLWIYSTSNLASGVPARFSGSGSGTSYSLTISRMEAEDAATYYCQQRSSYPRTFGGGTKLEIKR
